Measured values taken from patent US20060153851A1.
Several values for one entry are separate records, joined by “and”; a condition that tells them apart may be missing. Identical values can stand only once.

Target: each PDZ domain-containing protein (GST-DLG1, GST-NeDLG, and GST-PSD95 fusion proteins of FIG. 9B)
Experiment: 30 µM biotinylated peptide on plate-bound GST-PDZ fusions, streptavidin-HRP (FIG. 9B)

B1: biotinylated synthetic peptide corresponding to the C-terminal 20 amino acids of CLASP-2 (peptide)
peptide: VLHHHQNPEFYDEIKIELPTQLHEKHHLLLTFFHVSCDNSSKGSTKKRDVVETQVGYSWLPLLKDGRVVTSEQHIPVSANLPSGYLGYQELGMGRHYGPEIKWVDGGKPLLKISTHLVSTVYTQDQHLHNFFQYCQKTESGAQALGNELVKYLKSLHAMEGHVMIAFLPTILNQLFRVLTRATQEEVAVNVTRVIIHVVAQCHEEGLESHLRSYVKYAYKAEPYVASEYKTVHEELTKSMTTILKPSADFLTSNKLLRYSWFFFDVLIKSMAQHLIENSKVKLLRNQRFPASYHHAAETVVNMLMPHITQKFGDNPEASKNANHSLAVFIKRCFTFMDRGFVFKQINNYISCFAPGDPKTLFEYKFEFLRVVCNHEHYIPLNLPMPFGKGRIQRYQDLQLDYSLTDEFCRNHFLVGLLLREVGTALQEFREVRLIAISVLKNLLIKHSFDDRYASRSHQARIATLYLPLFGLLIENVQRINVRDVSPFPVNAGMTVKDESLALPAVNPLVTPQKGSTLDNSLHKDLLGAISGIASPYTTSTPNINSVRNADSRGSLISTDSGNSLPERNSEKSNSLDKHQQSSTLGNSVVRCDKLDQSEIKSLLMCFLYILKSMSDDALFTYWNKASTSELMDFFTISEVCLHQFQYMGKRYIARNQEGLGPIVHDRKSQTLPVSRNRTGMMHARLQQLGSLDNSLTFNHSYGHSDADVLHQSLLEANIATEVCLTALDTLSLFTLAFKNQLLADHGHNPLMKKVFDVYLCFLQKHQSETALKNVFTALRSLIYKFPSTFYEGRADMCAALCYEILKCCNSKLSSIRTEASQLLYFLMRNNFDYTGKKSFVRTHLQVIISVSQLIADVVGIGETRFQQSLSIINNCANSDRLIKHTSFSSDVKDLTKRIRTVLMATAQMKEHENDPEMLVDLQYSLAKSYASTPELRKTWLDSMARIHVKNGDLSEAAMCYVHVTALVAEYLTRKGVFRQGCTAFRVITPNIDEEASMMEDVGMQDVHFNEDVLMELLEQCADGLWKAERYELIADIYKLIIPIYEKRRDFFEDEDGKEYIYKEPKLTPLSEISQRLLKLYSDKFGSENVKMIQDSGKVNPKDLDSKYAYIQVTHVIPFFDEKELQERKTEFERSHNIRRFMFEMPFTQTGKRQGGVEEQCKRRTILTAIHCFPYVKKRIPVMYQHHTDLNPIEVAIDEMSKKVAELRQLCSSAEVDMIKLQLKLQGSVSVQVNAGPLAYARAFLDDTNTKRYPDNKVKLLKEVFRQFVEACGQALAVNERLIKEDQLEYQEEMKANYREMAKELSEIMHEQICPLEEKTSVLPNSLHIFNAISGTPTSTMVHGMTSSSSVV
modifications: biotin at the amino-terminus
  OD units at 30 µM peptide: 0.4 OD units and 1 OD units
